No end group written: not given here. TMR = tetramethyl rhodamine dye
T1: Rb^P M695I (human, UniProt P06400 380-788, M695I)
T1 construct: also called variant 61
T1 sequence (looked up): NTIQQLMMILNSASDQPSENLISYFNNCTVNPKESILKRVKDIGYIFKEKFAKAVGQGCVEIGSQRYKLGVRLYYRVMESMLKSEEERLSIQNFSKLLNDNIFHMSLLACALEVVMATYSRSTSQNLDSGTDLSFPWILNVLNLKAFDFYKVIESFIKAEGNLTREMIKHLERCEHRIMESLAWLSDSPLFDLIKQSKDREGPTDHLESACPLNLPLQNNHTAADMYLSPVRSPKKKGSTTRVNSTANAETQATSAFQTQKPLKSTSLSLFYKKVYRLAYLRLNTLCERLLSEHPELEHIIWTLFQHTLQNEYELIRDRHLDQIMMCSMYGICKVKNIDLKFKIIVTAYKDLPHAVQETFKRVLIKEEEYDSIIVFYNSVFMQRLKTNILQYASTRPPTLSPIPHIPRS

T2: Rb^P T738I (human, UniProt P06400 380-788, T738I)
T2 construct: also called variant 67
T2 sequence (looked up): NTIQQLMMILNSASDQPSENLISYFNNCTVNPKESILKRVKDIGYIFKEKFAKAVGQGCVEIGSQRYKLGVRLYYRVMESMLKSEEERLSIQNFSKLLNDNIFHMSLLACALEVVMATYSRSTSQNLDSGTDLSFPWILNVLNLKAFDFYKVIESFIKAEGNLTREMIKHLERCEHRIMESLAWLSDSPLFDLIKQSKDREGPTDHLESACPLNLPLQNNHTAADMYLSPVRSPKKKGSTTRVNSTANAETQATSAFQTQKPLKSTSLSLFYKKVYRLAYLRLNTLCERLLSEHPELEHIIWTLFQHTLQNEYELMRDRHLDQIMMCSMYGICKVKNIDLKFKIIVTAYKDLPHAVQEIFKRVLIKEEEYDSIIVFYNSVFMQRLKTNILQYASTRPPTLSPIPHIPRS

T3: Rb^P K548N (human, UniProt P06400 380-788, K548N)
T3 construct: also called variant 26
T3 sequence (looked up): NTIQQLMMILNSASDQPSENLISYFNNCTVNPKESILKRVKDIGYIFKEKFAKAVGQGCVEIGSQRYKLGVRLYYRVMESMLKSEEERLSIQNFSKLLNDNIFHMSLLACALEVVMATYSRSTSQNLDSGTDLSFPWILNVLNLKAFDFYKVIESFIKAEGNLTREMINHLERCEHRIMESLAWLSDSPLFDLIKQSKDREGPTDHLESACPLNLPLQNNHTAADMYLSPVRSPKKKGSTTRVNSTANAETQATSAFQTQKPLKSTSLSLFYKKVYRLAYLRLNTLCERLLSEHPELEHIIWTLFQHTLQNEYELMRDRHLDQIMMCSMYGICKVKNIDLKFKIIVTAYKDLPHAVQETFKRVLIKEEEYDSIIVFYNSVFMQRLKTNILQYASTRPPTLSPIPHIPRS

T4: Rb^P A490T (human, UniProt P06400 380-788, A490T)
T4 construct: also called variant 16
T4 sequence (looked up): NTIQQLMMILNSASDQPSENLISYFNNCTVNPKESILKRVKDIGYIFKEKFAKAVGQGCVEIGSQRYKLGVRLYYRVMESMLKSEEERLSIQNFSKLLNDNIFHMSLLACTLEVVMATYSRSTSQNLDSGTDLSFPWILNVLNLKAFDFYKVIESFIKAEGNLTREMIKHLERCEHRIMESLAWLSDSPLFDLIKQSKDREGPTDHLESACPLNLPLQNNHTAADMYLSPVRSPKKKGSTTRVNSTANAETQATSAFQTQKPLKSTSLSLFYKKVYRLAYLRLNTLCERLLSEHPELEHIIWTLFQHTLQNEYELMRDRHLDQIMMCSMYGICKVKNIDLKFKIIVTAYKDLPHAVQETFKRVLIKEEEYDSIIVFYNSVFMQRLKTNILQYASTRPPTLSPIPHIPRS

T5: Rb^P R763T (human, UniProt P06400 380-788, R763T)
T5 construct: also called variant 75
T5 sequence (looked up): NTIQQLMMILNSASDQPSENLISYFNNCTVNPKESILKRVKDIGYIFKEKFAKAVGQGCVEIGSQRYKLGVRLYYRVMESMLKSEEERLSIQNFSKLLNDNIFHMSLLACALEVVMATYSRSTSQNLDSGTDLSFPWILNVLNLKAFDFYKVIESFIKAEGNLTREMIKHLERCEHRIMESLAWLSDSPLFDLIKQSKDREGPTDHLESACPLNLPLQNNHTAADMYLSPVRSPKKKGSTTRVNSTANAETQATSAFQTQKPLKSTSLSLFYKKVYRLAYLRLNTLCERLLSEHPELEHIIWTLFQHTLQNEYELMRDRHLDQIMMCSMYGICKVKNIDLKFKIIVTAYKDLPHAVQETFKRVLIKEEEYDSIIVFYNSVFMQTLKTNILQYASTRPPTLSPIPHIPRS


Experiments:
Assay in all cases: fluorescence polarisation; 25 °C; unlabeled Rb^P titrated against 1.5 nM TMR-E2F1^TD or 7.5 nM TMR-E7^LxCxE; 25 mM Tris pH 8.0, 200 mM NaCl, 1 mM DTT, 0.1% Tween-20; 2 min incubation; quadratic fit; apparent Kd for the variants, Kd for WT
Conditions in all cases: both partners purified
Rb^P M695I = biological target: T1, Rb^P M695I
Rb^P T738I = biological target: T2, Rb^P T738I
Rb^P K548N = biological target: T3, Rb^P K548N
Rb^P A490T = biological target: T4, Rb^P A490T
Rb^P R763T = biological target: T5, Rb^P R763T

Binder | Kd (Rb^P M695I) [nM] | Kd (Rb^P T738I) [nM] | Kd (Rb^P K548N) [nM] | Kd (Rb^P A490T) [nM] | Kd (Rb^P R763T) [nM]
{TMR}-GEGIRDLFDCDFGDLTPLD (also called E2F^TD; source: synthetic peptide, bought: GenScript) [TMR-E2F1^TD, peptide of the E2F1 transactivation domain] | 43 | 60 | 133 | 59 | 37
DLYCYEQLN (also: TMR label, position not given here, source: synthetic peptide, bought: GenScript) [TMR-E7^LxCxE, LxCxE peptide of the E7 oncoprotein from HPV] | 11 | 18 | 6 | 13 | 21

— publication PMC11931385, “Structural and functional analysis of cancer-associated missense variants in the retinoblastoma protein pocket domain” (The Journal of Biological Chemistry, 2025)
